The test system of test [1] is rat 6-OHDA model of PD. Kind of test: Neurorestoration study in 6-OHDA model of PD, amphetamine-induced rotations. Format: in vivo. Conditions: intrastriatal injection 2 weeks after 6-OHDA lesioning; 2, 4, 6 and 8 weeks post-lesion. How it is done:
In neurorestoration model of PD, rats were lesioned with 6-OHDA as described before (Voutilainen et al., 2009; Voutilainen et al., 2011, Penttinen et al., 2016). Briefly, rats received under isoflurane anesthesia unilateral stereotaxic injections of 3×2 μg 6-OHDA (in 10 degree angle) into the left striatum (coordinates relative to bregma and dura A/P+1.6; L/M −2.8; D/V −6, A/P 0.0: L/M −4.1; D/V −5.5 and A/P −1.2; L/M: −4.5; D/V −5.5). Two weeks later, rats were divided to groups based on their amphetamine-induced rotation results (size of the lesion). […] In the reference experiment after division of rats into groups, osmotic minipumps were inserted subcutaneously and cannula was placed into lesioned striatum. The minipump delivered MANF4 (i.e. MANF peptide CKGC, see WO2013034805), GDNF or vehicle solution into striatum for two weeks after which the minipump and cannula were removed. […] The number of amphetamine-induced (2.5 mg/kg, i.p.) full (360°) ipsi- and contralateral turns were recorded for 120 mins after a 30 min habituation period. The results are expressed as net ipsilateral turns to the lesion side Exclusion criterion was Mean (net rotations)±2×STDEV.

Test [2] relates to dopaminergic neurons. Description: Survival of TH-positive dopaminergic neurons in midbrain cultures. In kind it is cell-based. Conditions: added to culture medium, 5 days, E13/E13.5 NMRI mouse midbrain floors. How it is done: To study the dopamine neurons (Yu et al., 2008; Yu and Arumae, 2008), the midbrain floors were dissected from the ventral mesencephali of 13.5-d-old NMRI strain mouse embryos. Tissues were incubated with 0.5% trypsin (ICN Biomedical), then mechanically dissociated using a large fire-polished Pasteur pipette. […] Same amount of the neurons were plated to each well at the beginning of the experiments. The cultures without added neurotrophic factors served as the negative control. As the midbrain cultures contain several neuronal types, the cultures were fixed and immunostained with the antibodies to tyrosine hydroxylase (TH) (Millipore), a specific marker for the dopaminergic neurons. Images of each well were scanned by CellInsight™ and immunopositive neurons were counted by CellProfiler and CellProfiler analyst software. Data are expressed as a percentage of GDNF-maintained TH-positive neurons. All experiments were repeated at least three times on the independent cultures. The results were expressed as the mean the SEM and were tested for the significance by either one-way ANOVA and Tukey's post hoc test or by two-tailed Student's t-test. The null hypothesis was rejected at P<0.05.

B1: C-CDNF: Human C-CDNF, SEQ ID NO: 4: C-terminal domain of mature CDNF, amino acid 101 to 161; recombinant, Histidine tag at C-terminus (protein, listed as Homo sapiens)
chain: KYEKTLDLASVDLRKMRVAELKQILHSWGEECRACAEKTDYVNLIQELAPKYAATHPKTEL
B1: in test [1], the cumulative amphetamine-induced rotations entry is “significantly reduces the cumulative amount of amphetamine-induced rotations”. Further, the “TH-positive neurons, percentage of GDNF-maintained neurons” value in test [2] was “protects dopaminergic neurons in vitro”.

The values are drawn from patent US20260159561A1 (MyNeuroCure Oy, priority 2017, published 2026).
